Assay results as given in patent US8168188.

Legend:
[1] = target: amyloid β monomers (length not stated) (UniProt P05067); assay: assay not stated
[2] = target: amylospheroid 40 (Homo sapiens (Human)) (UniProt P05067); assay: SPR (BIAcore 3000), amylospheroid coupled to CM5 chip, antibody in solution
[3] = target: amylospheroid 42 (Homo sapiens (Human)) (UniProt P05067); assay: as above

reactivity with amyloid β monomers relative to reactivity with amylospheroid [1] [fold] | Kd [2] [nM] | Kd [3] [nM] | Substance
2 | – | – | commercialized N-terminal antibodies 82E1 (IBL) (antibody)
– | 1.7 | 3.2 | commercialized anti-amyloid β antibody 4G8
– | 2.9 | – | commercialized anti-amyloid β antibody 6E10
